The text below walks through data of patent publication US8889621B2, “Inhibiting binding of FGF23 to the binary FGFR-Klotho complex for the treatment of hypophosphatemia” (New York University, priority 2009, dated 2014).

The assay concerns the target T1, binary FGFR1c-Klotho complex (UniProt O35082+P11362).
T1 construct: The ectodomain of murine Klotho (A35 to K982) was purified from culture media; FLAG (C); made in house; host or cells: E. coli (FGFR1c, FGF23); HEK293 (Klotho ectodomain)
T1 sequence (P11362 142-365): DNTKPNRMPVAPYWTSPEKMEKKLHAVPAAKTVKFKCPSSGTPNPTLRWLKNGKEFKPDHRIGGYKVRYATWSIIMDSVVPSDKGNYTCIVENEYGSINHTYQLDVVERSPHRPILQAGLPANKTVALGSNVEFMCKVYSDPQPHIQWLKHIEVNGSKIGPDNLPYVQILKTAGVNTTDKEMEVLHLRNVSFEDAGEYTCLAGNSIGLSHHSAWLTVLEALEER
T1 sequence (O35082 35-982): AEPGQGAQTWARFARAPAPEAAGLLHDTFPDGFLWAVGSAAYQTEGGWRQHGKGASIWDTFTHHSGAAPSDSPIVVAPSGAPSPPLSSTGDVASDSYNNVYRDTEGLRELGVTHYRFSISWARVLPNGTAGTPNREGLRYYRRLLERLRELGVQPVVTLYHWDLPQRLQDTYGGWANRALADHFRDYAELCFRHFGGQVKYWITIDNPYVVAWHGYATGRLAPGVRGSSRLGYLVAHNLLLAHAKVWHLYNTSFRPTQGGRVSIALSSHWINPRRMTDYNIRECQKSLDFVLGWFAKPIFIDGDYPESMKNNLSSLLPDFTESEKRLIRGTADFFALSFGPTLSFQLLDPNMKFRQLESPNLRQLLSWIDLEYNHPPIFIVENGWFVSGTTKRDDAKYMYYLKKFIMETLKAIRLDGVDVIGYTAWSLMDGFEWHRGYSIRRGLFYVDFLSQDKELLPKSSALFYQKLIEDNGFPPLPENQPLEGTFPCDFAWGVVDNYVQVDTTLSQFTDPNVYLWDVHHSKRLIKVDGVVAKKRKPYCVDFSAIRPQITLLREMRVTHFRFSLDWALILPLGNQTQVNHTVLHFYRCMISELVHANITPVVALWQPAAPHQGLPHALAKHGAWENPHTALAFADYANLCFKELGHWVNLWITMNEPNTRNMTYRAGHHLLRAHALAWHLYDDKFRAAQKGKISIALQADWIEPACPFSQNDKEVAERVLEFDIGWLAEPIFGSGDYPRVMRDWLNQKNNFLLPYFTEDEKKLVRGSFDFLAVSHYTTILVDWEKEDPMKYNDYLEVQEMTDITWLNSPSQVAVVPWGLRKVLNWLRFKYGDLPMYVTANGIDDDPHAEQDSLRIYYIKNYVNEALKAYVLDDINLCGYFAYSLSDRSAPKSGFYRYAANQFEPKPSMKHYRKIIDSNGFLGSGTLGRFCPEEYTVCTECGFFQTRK
The assay is described as follows: SPR competition: FGFR1c-Klotho binding to immobilized FGF23^28-251. Details: species or system human FGFR1c, murine Klotho. The following applies: for inhibition of FGFR1c-Klotho binding to immobilized FGF23^28-251: FGF21^168-209 at molar ratios of 6:1 and 10:1; for rightward shift of dose-response curve compared to full-length FGF23: FIG. 3D. The procedure:
A variety of interaction or binding assays can be used to determine that an agent specifically binds the binary FGFR-Klotho complex, such as the SPR interaction analysis described below. One aspect of the present invention utilizes SPR analysis of FGF23 protein/peptide binding to the binary FGFR-Klotho complex. The SPR analysis involved FGF23 protein/peptide immobilization by amine coupling on flow channels of a chip. Proteins were injected over the chip at a flow rate of 50 μl min^−1, and at the end of each protein injection (180 s), HBS-EP buffer (10 mM HEPES-NaOH, pH 7.4, 150 mM NaCl, 3 mM EDTA, 0.005% (v/v) polysorbate 20; 50 μl min^−1) was flowed over the chip to monitor dissociation for 180 s. The chip surface was then regenerated by injecting 50 μl of 2.0 M NaCl in 10 mM sodium acetate, pH 4.5. […] For each protein injection over a FGF23 protein/peptide chip, the nonspecific responses from the FHF1B control flow channel were subtracted from the responses recorded for the flow channel onto which FGF23 protein/peptide was immobilized. To analyze FGF23 binding to the binary FGFR1c-Klotho complex, FGF23^28-251 was coupled to a chip, and increasing concentrations of 1:1 complex of the ectodomains of FGFR1c and Klotho in HBS-EP buffer were passed over the chip. To measure binding of the C-terminal tail of FGF23 to the binary FGFR1c-Klotho complex, FGF23^180-251 was immobilized on a chip, and increasing concentrations of 1:1 complex of the ectodomains of FGFR1c and Klotho in HBS-EP buffer were passed over the chip. To examine whether the C-terminal tail of FGF23 can compete with full-length FGF23 for binding to the binary FGFR1c-Klotho complex, FGF23^28-251 was immobilized on a chip. Increasing concentrations of FGF23^180-251 were mixed with a fixed concentration of 1:1 complex of the ectodomains of FGFR1c and Klotho in HBS-EP buffer, and the mixtures were passed over the chip. As a control, competition of FGF23 in solution with immobilized FGF23 for binding to the binary FGFR1c-Klotho complex was studied. Increasing concentrations of FGF23^28-251 were mixed with a fixed concentration of 1:1 complex of the ectodomains of FGFR1c and Klotho in HBS-EP buffer, and the mixtures were passed over the FGF23 chip. Competition of the FGF23 C-terminal tail peptide with full-length FGF23 for binding to the binary FGFR1c-Klotho complex was also studied using the “reverse” SPR assay format, where FGF23^180-251 was immobilized on a chip and mixtures of a fixed concentration of 1:1 complex of the ectodomains of FGFR1c and Klotho with increasing concentrations of FGF23^28-251 were passed over the chip. As a control, competition of FGF23 C-terminal tail peptide in solution with immobilized FGF23 C-terminal tail peptide for binding to the binary FGFR1c-Klotho complex was analyzed. Increasing concentrations of FGF23^180-251 were mixed with a fixed concentration of 1:1 complex of the ectodomains of FGFR1c and Klotho in HBS-EP buffer, and the mixtures were passed over the FGF23^180-251 chip. To verify the specificity of the interaction between the FGF23 C-terminal tail and the FGFR1c-Klotho complex, FGF23^28-251 was immobilized on a chip. Increasing concentrations of FGF21^168-209 were mixed with a fixed concentration of 1:1 complex of the ectodomains of FGFR1c and Klotho in HBS-EP buffer, and the mixtures were passed over the chip. In addition, the ability of the FGF23 C-terminal tail peptide to interfere with binary complex formation between βKlotho and either FGF19 or FGF21 was tested, as was its ability to interfere with ternary complex formation between βKlotho, FGFR, and either FGF19 or FGF21. FGF19^23-216 and FGF21^29-209 were immobilized on two flow channels of a chip. FGF23^180-251 and the ectodomain of βKlotho were mixed at a molar ratio of 2:1, and the mixture was injected over the chip. Next, FGF23^180-251 and the 1:1 complex of the ectodomains of FGFR1c and βKlotho were mixed at a molar ratio of 10:1, and the mixture was passed over the FGF19/FGF21 chip. […]

Peptide text beside a SMILES is read from it.

Regarding `CSCC[C@H](NC(=O)[C@H](CCCNC(=N)N)NC(=O)[C@H](C)NC(=O)[C@H](CCCNC(=N)N)NC(=O)[C@@H]1CCCN1C(=O)[C@H](CCCCN)NC(=O)[C@H](CC(C)C)NC(=O)[C@@H](NC(=O)[C@H](CC(N)=O)NC(=O)[C@H](CC(C)C)NC(=O)[C@@H]1CCCN1C(=O)[C@H](CC(=O)O)NC(=O)[C@H](CCCNC(=N)N)NC(=O)[C@H](CCC(=O)O)NC(=O)[C@H](CO)NC(=O)[C@H](CC(=O)O)NC(=O)[C@H](CC(=O)O)NC(=O)[C@H](CCC(=O)O)NC(=O)[C@H](C)NC(=O)[C@@H](N)CO)C(C)C)C(=O)N[C@H](C(=O)N1CCC[C@H]1C(=O)N[C@@H](C)C(=O)N1CCC[C@H]1C(=O)N[C@@H](C)C(=O)N[C@@H](CO)C(=O)O)[C@@H](C)O` [FGF23^180-205] (H-SAEDDSERDPLNVLKPRARMTPAPAS-OH; N-terminus and C-terminus assumed), the “inhibition of FGFR1c-Klotho binding to immobilized FGF23^28-251” value was “able to compete, in a dose-dependent fashion” and the “rightward shift of dose-response curve compared to full-length FGF23” value is given as roughly 6 fold. In addition, the “molar excess over FGFR1c-Klotho complex at half-maximum inhibition of FGFR1c-Klotho binding to FGF23^28-251” value (FGF23^28-251 chip) stood at 5.7 fold molar excess.

B1: FGF23^28-251: human FGF23 (A28 to I251), bioactive full-length ligand expressed in E. coli (protein, listed as Homo sapiens)
chain: ASPLLGSSWGGLIHLYTATARNSYHLQIHKNGHVDGAPHQTIYSALMIRSEDAGFVVITGVMSRRYLCMDFRGNIFGSHYFDPENCRFQHQTLENGYDVYHSPQYHFLVSLGRAKRAFLPGMNPPPYSQFLSRRNEIPLIHFNTPIPRRHTRSAEDDSERDPLNVLKPRARMTPAPASCSQELPSAEDNSPMASDPLGVVRGGRVNTHAGGTGPEGCRPFAKFI
As for B1, the “amount relative to FGFR1c-Klotho complex yielding 50% inhibition of binding to immobilized FGF23^28-251” value (FGF23^28-251 chip, control) is on record as “less than an equimolar amount”.

B2: FGF23^180-251: 72-amino acid C-terminal tail of human FGF23 (S180 to I251), expressed in E. coli (protein, listed as Homo sapiens)
chain: SAEDDSERDPLNVLKPRARMTPAPASCSQELPSAEDNSPMASDPLGVVRGGRVNTHAGGTGPEGCRPFAKFI
Consider B2, for which the “inhibition of FGFR1c-Klotho binding to immobilized FGF23^28-251” value is given as “competed, in a dose-dependent fashion” and the “rightward shift of dose-response curve compared to full-length FGF23” value was “about 3 fold”. For the same molecule, the “molar excess over FGFR1c-Klotho complex at half-maximum inhibition of FGFR1c-Klotho binding to FGF23^28-251” value (FGF23^28-251 chip) amounted to 3.3 fold molar excess.
